Reference: US20100015130A1

How the values were obtained:
[1] = molecular target: GSK3β as used in the surface plasmon resonance (SPR) binding assays (Homo sapiens (Human)) (UniProt P49841); assay: SPR, peptide at 25 µM on GSK3β
[2] = molecular target: GSK3β as used in the surface plasmon resonance (SPR) binding assays (Homo sapiens (Human)) (UniProt P49841); assay: SPR, stoichiometry inferred from the response

Chain of GSK3β as used in the surface plasmon resonance (SPR) binding assays (Homo sapiens (Human)) (P49841 whole entry, form in doubt): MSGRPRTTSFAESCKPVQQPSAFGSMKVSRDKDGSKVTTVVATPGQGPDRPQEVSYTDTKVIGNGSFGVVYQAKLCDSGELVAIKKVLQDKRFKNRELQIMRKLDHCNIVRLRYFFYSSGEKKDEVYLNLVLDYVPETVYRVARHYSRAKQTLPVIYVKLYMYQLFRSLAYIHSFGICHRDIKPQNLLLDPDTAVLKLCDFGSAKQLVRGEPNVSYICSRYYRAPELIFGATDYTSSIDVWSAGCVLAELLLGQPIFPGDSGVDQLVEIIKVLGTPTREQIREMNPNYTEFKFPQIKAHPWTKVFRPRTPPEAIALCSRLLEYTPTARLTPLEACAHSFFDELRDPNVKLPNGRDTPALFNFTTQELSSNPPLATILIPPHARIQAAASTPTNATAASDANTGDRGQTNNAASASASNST

- percent theoretical maximal response [1]: 259%
- peptide-protein ratio (peptide:protein) [2]: 2
Substance: L803-MTS (commercial GSK3β peptide inhibitor, Calbiochem)
